Experimental findings from patent US20240109955A1 are described below.

Common to all, as to assay: cell-based or functional assay
For test [1], the target named is SARS-CoV-2 spike protein, Delta variant (AY.1) (SARS-CoV-2).
The target in test [2] is SARS-CoV-2 spike (S) protein, Omicron variant BA.1 (SARS-CoV-2) (UniProt P0DTC2).
Test [3] deals with SARS-CoV-2 spike protein, Delta variant (B.1.617.2) (SARS-CoV-2).
Test [4] concerns the target SARS-CoV-2 spike protein, Beta variant 1 (B.1.351 v1) (SARS-CoV-2).
For test [5], the target named is SARS-CoV-2 spike protein, Gamma variant (P.1) (SARS-CoV-2).
In test [6] the target is SARS-CoV-2 spike protein, Alpha variant (B.1.1.7) (SARS-CoV-2).
For test [7], the target named is SARS-CoV-2 spike (S) protein, Omicron variant BA.2.12.1 (SARS-CoV-2) (UniProt P0DTC2).
The target in test [8] is SARS-CoV-2 spike protein, Mu variant (B.1.621) (SARS-CoV-2).
Test [9] addresses SARS-CoV-2 spike protein, Iota variant (B.1.526) (SARS-CoV-2).
For test [10], the target named is SARS-CoV-2 spike (S) protein, Omicron variant BA.2 (SARS-CoV-2) (UniProt P0DTC2).
Test [11] concerns the target SARS-CoV-2 spike protein, C.1.2 variant (SARS-CoV-2).
In test [12] the target is SARS-CoV-2 spike protein, Kappa variant (B.1.617.1) (SARS-CoV-2).
For test [13], the target named is SARS-CoV-2 spike protein, Lambda variant (C.37) (SARS-CoV-2).
Test [14] has as its target SARS-CoV-2 spike protein, Omicron variant (B.1.1.529) (SARS-CoV-2) (UniProt P0DTC2).
In test [15] the target is SARS-CoV-2 Omicron BA.4.6 spike protein (R346T, F486V) (SARS-CoV-2) (UniProt P0DTC2).
Test [16] concerns the target SARS-CoV-2 spike (S) protein of Omicron sublineage BQ.1.1 (R346T, K444T, F486V) (SARS-CoV-2) (UniProt P0DTC2).
The target of test [17] is SARS-CoV-2 spike (S) protein of Omicron sublineage BJ.1 (R346T, V445P, G446S) (SARS-CoV-2) (UniProt P0DTC2).
The target of test [18] is SARS-CoV-2 spike (S) protein of Omicron sublineage BA.2.75 (G446S) (SARS-CoV-2) (UniProt P0DTC2).

Sequence of A19-46 mAb (antibody) (VH): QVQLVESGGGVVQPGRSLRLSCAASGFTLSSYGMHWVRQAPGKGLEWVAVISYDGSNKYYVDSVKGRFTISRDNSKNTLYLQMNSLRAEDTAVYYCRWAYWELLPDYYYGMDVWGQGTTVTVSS
Sequence of A19-46 mAb (antibody) (VL): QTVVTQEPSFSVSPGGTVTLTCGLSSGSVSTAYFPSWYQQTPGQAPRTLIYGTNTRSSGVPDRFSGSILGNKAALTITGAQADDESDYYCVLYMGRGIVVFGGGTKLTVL
Sequence of MX184 (B1-182 × A19-61) (bispecific antibody) (chain): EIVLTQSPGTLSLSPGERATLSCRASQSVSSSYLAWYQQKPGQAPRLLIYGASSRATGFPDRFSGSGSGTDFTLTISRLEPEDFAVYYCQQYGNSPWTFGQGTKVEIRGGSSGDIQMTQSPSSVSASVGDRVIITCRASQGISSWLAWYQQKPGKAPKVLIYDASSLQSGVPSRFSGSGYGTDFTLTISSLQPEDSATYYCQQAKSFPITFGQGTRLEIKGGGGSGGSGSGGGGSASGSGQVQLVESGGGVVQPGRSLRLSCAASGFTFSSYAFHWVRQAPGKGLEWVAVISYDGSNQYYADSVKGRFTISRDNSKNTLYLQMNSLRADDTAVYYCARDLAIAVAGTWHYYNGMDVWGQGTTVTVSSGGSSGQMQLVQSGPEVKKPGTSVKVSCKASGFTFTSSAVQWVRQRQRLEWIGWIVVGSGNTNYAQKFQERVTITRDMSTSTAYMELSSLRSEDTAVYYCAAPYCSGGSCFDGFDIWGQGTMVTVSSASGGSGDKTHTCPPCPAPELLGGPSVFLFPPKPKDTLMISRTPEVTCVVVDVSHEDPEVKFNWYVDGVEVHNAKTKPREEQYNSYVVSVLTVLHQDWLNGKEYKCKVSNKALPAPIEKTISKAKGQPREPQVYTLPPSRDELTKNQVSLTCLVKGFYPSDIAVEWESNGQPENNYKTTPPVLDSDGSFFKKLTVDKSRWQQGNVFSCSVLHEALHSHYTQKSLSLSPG
Sequence of MX183 (A19-61 × B1-182) (bispecific antibody) (chain): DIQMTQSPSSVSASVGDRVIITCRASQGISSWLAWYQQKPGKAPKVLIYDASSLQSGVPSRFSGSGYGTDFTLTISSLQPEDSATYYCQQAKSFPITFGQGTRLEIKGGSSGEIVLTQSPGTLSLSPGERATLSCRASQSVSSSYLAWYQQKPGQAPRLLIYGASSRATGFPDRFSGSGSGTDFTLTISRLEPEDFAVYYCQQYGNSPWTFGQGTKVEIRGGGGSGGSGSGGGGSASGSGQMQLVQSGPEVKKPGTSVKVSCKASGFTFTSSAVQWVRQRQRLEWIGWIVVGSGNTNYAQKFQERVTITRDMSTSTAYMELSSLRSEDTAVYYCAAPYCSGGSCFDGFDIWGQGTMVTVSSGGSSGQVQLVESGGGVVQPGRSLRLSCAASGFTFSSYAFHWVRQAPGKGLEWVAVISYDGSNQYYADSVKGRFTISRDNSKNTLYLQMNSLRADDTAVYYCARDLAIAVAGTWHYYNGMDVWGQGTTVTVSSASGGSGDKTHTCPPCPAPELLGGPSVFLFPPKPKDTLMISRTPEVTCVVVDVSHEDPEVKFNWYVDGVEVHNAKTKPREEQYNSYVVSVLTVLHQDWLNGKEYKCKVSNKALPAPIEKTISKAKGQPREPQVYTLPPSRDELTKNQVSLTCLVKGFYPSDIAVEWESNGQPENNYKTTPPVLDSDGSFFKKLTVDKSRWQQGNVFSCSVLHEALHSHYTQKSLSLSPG
Sequence of MX492 (A19-46 x A23-58H/B1-182L) bispecific, tetravalent molecule with Fc (bispecific antibody) (chain): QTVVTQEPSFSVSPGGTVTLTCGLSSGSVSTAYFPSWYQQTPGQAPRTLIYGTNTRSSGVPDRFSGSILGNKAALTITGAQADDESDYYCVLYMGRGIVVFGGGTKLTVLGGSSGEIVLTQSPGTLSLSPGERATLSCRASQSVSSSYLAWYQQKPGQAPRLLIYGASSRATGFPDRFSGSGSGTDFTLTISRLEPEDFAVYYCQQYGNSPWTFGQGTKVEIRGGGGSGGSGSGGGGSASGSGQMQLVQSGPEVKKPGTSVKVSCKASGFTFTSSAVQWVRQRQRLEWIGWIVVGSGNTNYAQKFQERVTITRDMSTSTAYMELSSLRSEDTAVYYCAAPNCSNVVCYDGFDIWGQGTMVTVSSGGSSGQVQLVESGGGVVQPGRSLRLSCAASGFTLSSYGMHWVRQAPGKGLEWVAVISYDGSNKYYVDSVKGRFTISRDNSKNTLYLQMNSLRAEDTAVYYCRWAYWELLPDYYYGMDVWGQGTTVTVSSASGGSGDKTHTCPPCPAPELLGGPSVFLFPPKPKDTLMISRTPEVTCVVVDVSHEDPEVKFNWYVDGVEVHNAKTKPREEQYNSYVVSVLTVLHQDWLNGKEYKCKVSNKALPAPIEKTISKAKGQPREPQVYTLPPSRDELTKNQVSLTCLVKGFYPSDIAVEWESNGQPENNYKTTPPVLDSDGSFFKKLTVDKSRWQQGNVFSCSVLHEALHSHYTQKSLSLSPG

With “MX184 (B1-182 × A19-61) (bispecific antibody)”, the IC50, pseudovirus neutralization in test [1] was determined as 0.0174 nM; in test [2] it was 47.6 nM; in [3], 0.0129 nM; in test [4] it was 0.0441 nM; in [5], 0.0325 nM; in test [6], 0.0772 nM. Also, the IC80, pseudovirus neutralization is 0.03 nM in test [1]; greater than 66.7 nM in [2]; 0.0458 nM in test [3]; 0.12 nM in test [4]; 0.137 nM in test [5]; 0.186 nM in [6].
On to A19-61 mAb (antibody), for which the IC50, pseudovirus neutralization in test [1] was 0.0557 nM; in test [2], greater than 66.7 nM; in [7] it was 0.11 nM; in [3], 0.209 nM; in test [4] it was 0.0686 nM; in test [8], 0.264 nM. Moreover, the IC50, pseudovirus neutralization in [9] amounted to 0.0418 nM; in test [10], 0.725 nM; in test [5], 0.135 nM; in [11], 8.43 nM; in [6] it was 0.175 nM; in test [12], 0.0815 nM. This substance yielded an IC50, pseudovirus neutralization in [13] of 0.11 nM. Moreover, the IC80, pseudovirus neutralization is 0.121 nM in test [1]; greater than 66.7 nM in [2]; 0.298 nM in [7]; 0.292 nM in [3]; 0.113 nM in test [4]; 0.43 nM in test [8]. The IC80, pseudovirus neutralization was 0.0836 nM in [9]; 2.24 nM in test [10]; 0.288 nM in [5]; greater than 66.7 nM in test [11]; 0.325 nM in test [6]; 0.173 nM in test [12]. In [13], this substance displayed an IC80, pseudovirus neutralization of 0.186 nM.
On to A19-46 mAb (antibody), for which the IC50, pseudovirus neutralization was greater than 66.7 nM in test [1]; 0.958 nM in test [2]; greater than 66.7 nM in test [7]; greater than 66.7 nM in [3]; 0.807 nM in [4]; 1.34 nM in test [8]. Moreover, the IC50, pseudovirus neutralization is 0.803 nM in test [9]; 0.0645 nM in test [10]; 0.26 nM in test [5]; 11.6 nM in [11]; 0.19 nM in test [6]; greater than 66.7 nM in test [12]. The IC50, pseudovirus neutralization in [13] was greater than 66.7 nM. For the same substance, the IC80, pseudovirus neutralization in [1] was greater than 66.7 nM; in test [2] it was 2.28 nM; in [7], greater than 66.7 nM; in test [3] it was greater than 66.7 nM; in test [4], 2.07 nM; in test [8], 3.81 nM. Besides, the IC80, pseudovirus neutralization in [9] is 1.88 nM; in test [10], 0.177 nM; in test [5], 0.7 nM; in test [11], 21 nM; in [6], 0.486 nM; in test [12], greater than 66.7 nM. Also, the IC80, pseudovirus neutralization in [13] is greater than 66.7 nM.
With “MX183 (A19-61 × B1-182) (bispecific antibody)”, the IC50, pseudovirus neutralization in [1] was 0.542 nM; in [2], greater than 66.7 nM; in test [3], 0.23 nM; in test [4] it was 1.02 nM; in test [5], 0.43 nM; in [6], 0.803 nM. In addition, the IC80, pseudovirus neutralization was 1.04 nM in test [1]; greater than 66.7 nM in test [2]; 0.948 nM in test [3]; 1.65 nM in test [4]; 2.27 nM in [5]; 5.66 nM in test [6].
In [14], S2E12 (antibody) registered an IC50, pseudovirus neutralization of 8.8 nM and an IC80, pseudovirus neutralization of 38.5 nM.
For A23-58H/B1-182L hybrid antibody, the IC50, pseudovirus neutralization in test [15] was greater than 10000 nM; in test [16], greater than 10000 nM; in test [17], 20 nM; in test [18] it was 5 nM. The IC80, pseudovirus neutralization in test [15] was greater than 10000 nM; in test [16], greater than 10000 nM; in test [17] it was 102 nM; in [18], 35 nM.
In the case of A19-61.1 antibody, the IC50, pseudovirus neutralization in test [16], in [17] and in [18] was greater than 10000 nM each time. In addition, the IC80, pseudovirus neutralization in test [16], in [17] and in test [18] was greater than 10000 nM in each case.
Take “bebtelovimab (LY1404, LY-CoV1404, LY3853133) (antibody)”: the IC50, pseudovirus neutralization in test [16] was greater than 10000 nM; in test [17], greater than 10000 nM; in test [18], 13 nM. In addition, the IC80, pseudovirus neutralization in [16] is greater than 10000 nM; in test [17] it was greater than 10000 nM; in test [18] it was 86 nM.
For “MX492 (A19-46 x A23-58H/B1-182L) bispecific, tetravalent molecule with Fc (bispecific antibody)”, the IC50, pseudovirus neutralization was greater than 10000 nM in [16], 783 nM in [17] and 3 nM in [18]. Further, the IC80, pseudovirus neutralization was greater than 10000 nM in [16], 2010 nM in test [17] and 10 nM in test [18].
In test [14], A23-58.1 (antibody) gave an IC50, pseudovirus neutralization of 98.1 nM and an IC80, pseudovirus neutralization of 782 nM.
Regarding B1-182 mAb (antibody), the IC50, pseudovirus neutralization in test [1] came to 0.008 nM; in test [2], 1.03 nM; in test [7] it was 0.739 nM; in [3] it was 0.0099 nM; in [4], 0.0357 nM; in test [8], 0.0695 nM. The IC50, pseudovirus neutralization in test [9] was found to be 0.0639 nM; in test [10], 2.34 nM; in test [5], 0.0182 nM; in test [11], 0.0549 nM; in [6], 0.0262 nM; in [12] it was 0.0261 nM. The substance also displayed an IC50, pseudovirus neutralization in test [13] of 0.0049 nM. Besides, the IC80, pseudovirus neutralization is 0.0192 nM in test [1]; 4.44 nM in [2]; 5.92 nM in [7]; 0.0254 nM in test [3]; 0.139 nM in test [4]; 0.219 nM in test [8]. The IC80, pseudovirus neutralization in [9] worked out at 0.183 nM; in test [10], 8.19 nM; in test [5], 0.0429 nM; in test [11], 0.11 nM; in test [6], 0.0844 nM; in [12], 0.086 nM. In test [13], this substance came in with an IC80, pseudovirus neutralization of 0.015 nM.
